Assay results taken from article PMC7305985 (Molecular cell, 2020).

Target: Histone H4 N-terminal peptide, biotinylated (1–23) (UniProt P62805 2-24, biotin (position not given))
Assay: pull-down

binding result: binds
B1: GST-tagged KAP1 PHD (residues 624–673) (domain or fragment, UniProt Q13263 624-673, looked up)
chain: SATICRVCQKPGDLVMCNQCEFCFHLDCHLPALQDVPGEEWSCSLCHVLP
